22 sequences from the Immune Epitope Database (IEDB) can be followed below.

For one assay, the target named is HLA-A*11:01. Description: IEDB peptide-MHC binding, purified MHC/competitive/fluorescence; ≥ and ≤ were set here for values at or beyond the usual limits of such assays.
For assay [1], the target named is HLA-A*03:01. Description: IEDB peptide-MHC binding, purified MHC/competitive/fluorescence; filed as Kd, often an IC50 or EC50 that approximates it; ≥ and ≤ were set here for values at or beyond the usual limits of such assays.
Assay [2] addresses HLA-A*02:01. Description: IEDB peptide-MHC binding, purified MHC/competitive/fluorescence; ≥ and ≤ were set here for values at or beyond the usual limits of such assays.
For assay [3], the target named is HLA-A*03:01. The description is as above.
Another assay concerns the target HLA-B*15:01. Described as above.
The target in another assay is HLA-A*24:02. The description is as above.
The next assay deals with HLA-A*02:17. Description: IEDB peptide-MHC binding, purified MHC/competitive/radioactivity; filed as Kd, often an IC50 or EC50 that approximates it; ≥ and ≤ were set here for values at or beyond the usual limits of such assays.
The next assay deals with HLA-A*02:03. Described as above.
For the next assay, the target named is HLA-A*02:06. Described as above. The following applies: source organism: Dengue virus 3 Martinique/1243/1999.
In a further assay the target is HLA-B*35:01. Described as above.
For assay [4], the target named is HLA-B*51:01. The assay is described as above.
A further assay has as its target HLA-B*07:02. The description is as above.
In the next assay the target is HLA-B*53:01. The description is as above.
The next assay deals with HLA-B*54:01. Described as above.
The next assay concerns the target HLA-A*01:01. Description: IEDB peptide-MHC binding, purified MHC/direct/fluorescence; filed as Kd, often an IC50 or EC50 that approximates it; ≥ and ≤ were set here for values at or beyond the usual limits of such assays. As to conditions: source organism: Homo sapiens.
Assay [5] concerns the target HLA-B*51:01. Description: IEDB peptide-MHC binding, purified MHC/competitive/fluorescence; filed as Kd, often an IC50 or EC50 that approximates it; ≥ and ≤ were set here for values at or beyond the usual limits of such assays. The following applies: source organism: Homo sapiens.
In assay [6] the target is HLA-A*02:01. Described as above. As to conditions: source organism: Homo sapiens.
Another assay addresses HLA-B*18:01. Described as above. As to conditions: source organism: Homo sapiens.
The target in assay [7] is HLA-A*69:01. The assay is described as above. The following applies: source organism: Homo sapiens.
The next assay deals with HLA-B*39:01. The description is as above. The following applies: source organism: Homo sapiens.
A further assay has as its target HLA-B*27:03. The description is as above. The following applies: source organism: Homo sapiens.
The target in the next assay is HLA-B*46:01. The assay is described as above. The following applies: source organism: Homo sapiens.
A further assay concerns the target HLA-B*57:01. The assay is described as above. As to conditions: source organism: Homo sapiens.
Assay [8] concerns the target HLA-A*69:01. Description: IEDB peptide-MHC binding, purified MHC/direct/fluorescence; filed as Kd, often an IC50 or EC50 that approximates it; ≥ and ≤ were set here for values at or beyond the usual limits of such assays. The following applies: source organism: dengue virus type 3.
[9] abbreviates: source organism: Vaccinia virus WR.
Setting [10] is: source organism: Zaire ebolavirus.
Where [11] appears, read: source organism: Vaccinia virus Copenhagen.
The mark [12] stands for this setting: source organism: Dengue virus 3 China/80-2/1980.
[13] abbreviates: source organism: Dengue virus 3 Martinique/1243/1999.
Setting [14] is: source organism: Dengue virus 2 Jamaica/1409/1983.
The mark [15] stands for this setting: source organism: Triticum aestivum.
Where [16] appears, read: source organism: Vaccinia virus.

In the assay with HLA-A*11:01 (setting [9]), PSVIEEWKK gave an IC50 of no less than 107000 nM.

GISRNTVKR: the Kd in the assay with HLA-A*03:01 [1] (source organism: Escherichia coli 536) is no less than 20000 nM.

As to KLSLTKLFS, the half-inhibitory concentration (IC50) is 2.94 µM in the assay with HLA-A*02:01 [2] (source organism: Variola virus) and 33.6 µM with HLA-A*03:01 [3] (source organism: Variola virus).

For the sequence VQRQIQVHA, the concentration for half-maximal inhibition (IC50) was 45.5 µM with HLA-A*02:01 [2] (setting [10]) and 13.5 µM with HLA-B*15:01 (setting [10]).

On to MVTRFESLK, for which, in the assay with HLA-A*03:01 [1] (source organism: Influenza A virus (A/Swine/Minnesota/55551/2000(H1N2))), the Kd came to 163 nM.

In the case of AQREIFSAW, the IC50 with HLA-A*24:02 (source organism: Variola virus) is 0.0386 µM; with HLA-B*15:01 (source organism: Variola virus), 6.52 µM.

SKRERQLAK: the IC50 in the assay with HLA-A*03:01 [3] (setting [11]) was 30.4 µM.

For VIFILLMLV, the Kd in the assay with HLA-A*02:17 (setting [12]) is 914 nM; with HLA-A*02:03 (setting [13]), 171 nM; with HLA-A*02:06, 2350 nM.

As to TNTTTEDHK, in the assay with HLA-A*11:01 (setting [10]), the IC50 is no less than 110000 nM.

For LPESDLDKVY, the Kd with HLA-B*35:01 (setting [9]) was 79 nM; in the assay with HLA-B*51:01 [4] (setting [9]), no less than 54.1 µM; in the assay with HLA-B*07:02 (setting [9]), no less than 69.6 µM; with HLA-B*53:01 (setting [9]) it was 513 nM; in the assay with HLA-B*54:01 (setting [9]) it was 10.6 µM.

Consider VTSSVSSGY, for which the Kd with HLA-A*01:01 was 5.4 nM; in the assay with HLA-B*51:01 [5], no less than 20 µM; with HLA-A*02:01 [6], no less than 20 µM; in the assay with HLA-B*18:01, no less than 20 µM; in the assay with HLA-A*69:01 [7], no less than 20 µM; with HLA-B*39:01, no less than 20 µM. The Kd in the assay with HLA-B*27:03, in the assay with HLA-B*46:01 and with HLA-B*57:01 was no less than 20 µM each time.

On to RLITVNPIV, for which the Kd in the assay with HLA-A*02:17 (setting [14]) came to 621 nM; with HLA-A*02:03 (setting [14]), 62.7 nM.

ILTDGPERV: the equilibrium dissociation constant (Kd) in the assay with HLA-A*69:01 [8] was no less than 20 µM; in the assay with HLA-A*02:17 (setting [12]), 8970 nM; in the assay with HLA-A*02:03 (setting [13]) it was 130 nM.

Regarding YPSMFTLRHI, the Kd turned out to be 446 nM in the assay with HLA-B*35:01 (setting [9]); 0.00258 µM with HLA-B*51:01 [4] (setting [9]); 0.0155 µM with HLA-B*07:02 (setting [9]); 0.943 nM with HLA-B*53:01 (setting [9]); 0.0208 µM with HLA-B*54:01 (setting [9]).

KPVSDLYTSM: the Kd with HLA-B*35:01 (setting [9]) was 34.9 nM; in the assay with HLA-B*51:01 [4] (setting [9]) it was no less than 69.6 µM; with HLA-B*07:02 (setting [9]), 0.000297 µM; with HLA-B*53:01 (setting [9]), 56.6 nM; in the assay with HLA-B*54:01 (setting [9]) it was 10.7 µM.

For GAMVEYVSA, the figures for the IC50 in the assay with HLA-A*02:01 [2] (setting [11]) and with HLA-B*15:01 (setting [11]) were 33.4 µM and 25.5 µM, respectively.

Take QPLSQVSF: the Kd in the assay with HLA-B*35:01 (setting [15]) is 15000 nM; in the assay with HLA-B*51:01 [4] (setting [15]), 12.6 µM; in the assay with HLA-B*07:02 (setting [15]), 6.87 µM; with HLA-B*53:01 (setting [15]), no less than 37500 nM; in the assay with HLA-B*54:01 (setting [15]), no less than 87.7 µM.

For CAGDFAFHK, the IC50 in the assay with HLA-A*11:01 (setting [10]) came to 1390 nM; in the assay with HLA-A*03:01 [3] (setting [10]), 63.9 µM.

As for SPEGEETII, the Kd with HLA-B*35:01 (setting [9]) is no less than 40600 nM; in the assay with HLA-B*51:01 [4] (setting [9]), 15.9 µM; with HLA-B*07:02 (setting [9]), 11.1 µM; with HLA-B*53:01 (setting [9]), 270 nM; with HLA-B*54:01 (setting [9]), no less than 78.1 µM.

As for QQTNAMVTL, the IC50 with HLA-A*24:02 (setting [10]) is 59.1 µM; with HLA-A*02:01 [2] (setting [10]), 38.5 µM; in the assay with HLA-B*15:01 (setting [10]), no less than 76 µM.

Turning to EKSSKYYIK, the IC50 in the assay with HLA-A*24:02 (setting [16]) was no less than 145 µM; with HLA-A*11:01 (setting [16]), no less than 79000 nM.

Regarding KAALSSLAK, the IC50 with HLA-A*11:01 (setting [10]) was 483 nM; in the assay with HLA-B*15:01 (setting [10]) it was no less than 110 µM; in the assay with HLA-A*03:01 [3] (setting [10]), 5.42 µM.

One may read the IC50 as the concentration at which inhibition is half-maximal. A lower IC50 goes with inhibition by little substance. In general, Kd refers to the free concentration of one partner at which half of the binding sites on the other are occupied at equilibrium, for simple one-to-one binding.
